Measured values taken from paper PMC3642155.

B1: T06 (structured_RNA)
RNA: GAGGAUGGCAGCGGAGAGGAAUGGUGUAGUGUAAGUCAAUUCUACUUUCGUUGCAGCCCACACCACUCUCC

molecular target: T7 RNA polymerase (UniProt P00573 1-883); assay: filter binding
Sequence (P00573 whole entry): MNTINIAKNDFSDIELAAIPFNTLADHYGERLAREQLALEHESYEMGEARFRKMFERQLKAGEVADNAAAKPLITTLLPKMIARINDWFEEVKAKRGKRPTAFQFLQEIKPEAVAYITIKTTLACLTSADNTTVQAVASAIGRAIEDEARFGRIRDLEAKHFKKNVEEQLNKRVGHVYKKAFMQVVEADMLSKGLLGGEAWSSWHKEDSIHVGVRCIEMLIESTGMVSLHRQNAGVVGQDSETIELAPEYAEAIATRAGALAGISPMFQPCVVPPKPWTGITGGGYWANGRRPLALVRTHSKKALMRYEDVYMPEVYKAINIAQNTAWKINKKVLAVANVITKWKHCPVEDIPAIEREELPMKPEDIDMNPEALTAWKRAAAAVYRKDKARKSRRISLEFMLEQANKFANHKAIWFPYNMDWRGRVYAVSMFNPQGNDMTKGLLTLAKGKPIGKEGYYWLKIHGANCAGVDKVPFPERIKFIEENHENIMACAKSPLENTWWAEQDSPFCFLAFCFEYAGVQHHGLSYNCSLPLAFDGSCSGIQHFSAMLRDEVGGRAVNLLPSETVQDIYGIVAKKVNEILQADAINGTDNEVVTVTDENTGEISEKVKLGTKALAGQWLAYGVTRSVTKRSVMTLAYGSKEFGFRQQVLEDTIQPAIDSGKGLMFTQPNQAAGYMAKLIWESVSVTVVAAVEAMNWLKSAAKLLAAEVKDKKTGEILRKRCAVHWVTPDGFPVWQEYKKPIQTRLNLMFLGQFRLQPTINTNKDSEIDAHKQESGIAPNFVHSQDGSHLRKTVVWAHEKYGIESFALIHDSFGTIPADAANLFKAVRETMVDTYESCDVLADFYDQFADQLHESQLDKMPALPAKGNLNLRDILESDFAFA

B1 and GUGUAGUGUAAGUCAAUUCUACUUUCGUUGCAGCCCAC (structured_RNA) [T06-38] are within error of each other in Kd: 8 ± 2.4 nM for the first, 10.5 ± 2.1 nM for the second.

GCGUAAGUCAAUUCCACUAUCAUUGCUGC (structured_RNA) [T230-29] was tested, and the Kd was 2.9 ± 0.9 nM.
